From publication PMC4935801, “The Arabidopsis Golgi-localized GDP-L-fucose transporter is required for plant development” (Nature Communications, 2016)

B1: GFT1 (Arabidopsis thaliana) (protein)
chain: MSSSRFDSNKQLTTSSLVIGYALCSSLLAVINKLAITYFNYPGLLTALQYLTCTVAVYLLGKSGLINHDPFTWDTAKKFLPAAIVFYLAIFTNTNLLRHANVDTFIVFRSLTPLLVAIADTVFRSQPLPSRLTFLSLVVILAGAVGYVATDSSFTLTAYSWALAYLVTITTEMVYIKHMVSNIKLNIWGLVLYNNLLSLMIAPVFWFLTGEFTEVFAALSENRGNLFEPYAFSSVAASCVFGFLISYFGFAARNAISATAFTVTGVVNKFLTVVINVLIWDKHATPVGLVCLLFTICGGVGYQQSVKLDKPIEKVSEKDSEKGEEDEELTQLVPGKLASVV
notes: yeast microsomal protein reconstituted into liposomes
B2: GONST1 (Arabidopsis thaliana) (protein)
chain: MKLYEHDGVDLEDGKTVKSGGDKPIPRKIHNRALLSGLAYCISSCSMILVNKFVLSSYNFNAGIFLMLYQNFVSVIIVVGLSLMGLITTEPLTLRLMKVWFPVNVIFVGMLITSMFSLKYINVAMVTVLKNVTNVITAVGEMYLFNKQHDNRVWAALFLMIISAVSGGITDLSFNAVGYAWQIANCFLTASYSLTLRKTMDTAKQVTQSGNLNEFSMVLLNNTLSLPLGLLLSYFFNEMDYLYQTPLLRLPSFWMVMTLSGLLGLAISFTSMWFLHQTGATTYSLVGSLNKIPLSIAGIVLFNVPTSLQNSASILFGLVAGVVFARAKMREKS
notes: as for B1

Legend:
Assay in all cases: proteo-liposome transport assay, LC-MS/MS
Format in all cases: biochemical, Arabidopsis thaliana
Conditions in all cases: apparent Km, proteo-liposomes pre-loaded with 10 mM GMP, 0.5–400 μM substrate, 25 °C, pH 7.5, mean (s.e.m.) n=4
[1] = substrate: C[C@@H]1O[C@H](OP(=O)(O)OP(=O)(O)OC[C@H]2O[C@@H](n3cnc4c(=O)[nH]c(N)nc43)[C@H](O)[C@@H]2O)[C@@H](O)[C@H](O)[C@@H]1O
Source text: proteo-liposome transport assay, LC-MS/MS on GFT1

[2] = substrate: C[C@@H]1O[C@H](OP(=O)(O)OP(=O)(O)OC[C@H]2O[C@@H](n3cnc4c(=O)[nH]c(N)nc43)[C@H](O)[C@@H]2O)[C@@H](O)[C@H](O)[C@@H]1O; remark: listed apart in the source
Source text: (§1) proteo-liposome transport assay, LC-MS/MS on GONST1

[3] = substrate: Nc1nc2c(ncn2[C@@H]2O[C@H](COP(=O)(O)OP(=O)(O)O[C@H]3O[C@H](CO)[C@@H](O)[C@H](O)[C@@H]3O)[C@@H](O)[C@H]2O)c(=O)[nH]1
Source text: as §1

Protein | Km [1] | Vmax [1] [µM/min] | kcat [1] [s⁻¹] | Km [2] | Vmax [2] [µM/min] | kcat [2] [s⁻¹] | Km [3] | Vmax [3] [µM/min] | kcat [3] [s⁻¹]
B1 | 7 (1) μM | 3.24 | 4 | – | – | – | – | – | –
B2 | – | – | – | 76 (5) μM | 0.84 | 0.7 | 17 (3) μM | 1.44 | 1.2
